Test results reported in patent publication US20210301005A1 (Genentech, published 2021).
Where two headings read alike, the source gives them in different places.

T1: human TGFβ3, mature dimeric form (human, UniProt P10600 301-412)
T1 sequence: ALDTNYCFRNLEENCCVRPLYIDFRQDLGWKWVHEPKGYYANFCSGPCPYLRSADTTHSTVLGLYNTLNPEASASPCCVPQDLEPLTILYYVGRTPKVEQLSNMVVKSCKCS

T2: human TGFβ2, mature receptor-binding domain (human, UniProt P09858 303-414 (pig entry), The mature TGFβ2 is a disulfide-linked homodimer of this 112-residue chain. The 4A11 epitope spans both monomers (p-1207).)
T2 sequence: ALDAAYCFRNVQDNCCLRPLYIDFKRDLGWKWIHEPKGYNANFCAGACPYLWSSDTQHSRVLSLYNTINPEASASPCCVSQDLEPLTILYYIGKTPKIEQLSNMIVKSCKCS


Assays:
[1] = target: T3, human TGFβ1, mature receptor-binding domain (human, UniProt P01137 279-390); assay: cell-based or functional assay
T3 sequence (P01137 279-390 limits assumed): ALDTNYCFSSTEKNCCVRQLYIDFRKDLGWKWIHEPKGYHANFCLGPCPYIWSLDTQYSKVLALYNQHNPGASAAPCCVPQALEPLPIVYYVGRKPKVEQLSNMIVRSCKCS

[2] = target: T1, human TGFβ3, mature dimeric form; assay: cell-based or functional assay
[3] = target: T2, human TGFβ2, mature receptor-binding …; assay: cell-based or functional assay
[4] = target: T1, human TGFβ3, mature dimeric form; assay: BIAcore T200
[5] = target: T1, human TGFβ3, mature dimeric form; assay: BIAcore T200; remark: listed apart in the source
Procedure: (§1) For binding affinity determinations of all humanized 2A10 antibodies, Surface Plasmon Resonance (SPR) measurement with a BIAcore™-T200 instrument was used. Briefly, series S CM5 biosensor chip with protein A was first applied to capture each humanized 2A10 variant to achieve approximately 100 response units (RU) on each flow cell, following by injection of 3-fold serial dilutions of human TGFβ1, TGFβ2 or TGFβ3 (0.02 nM to 5 nM) in HBS-EP buffer (0.01M HEPES pH 7.4, 0.15M NaCl, 3 mM EDTA and 0.05% v/v surfactant P20) at 25° C. with a flow rate of 50 μl/min for kinetics measurement. Association rates (ko.) and dissociation rates (koff) were calculated using a simple one-to-one Langmuir binding model (BIAcore T200 evaluation software version 2.0) to determine the equilibrium dissociation constant (KD), which was calculated as the ratio koff/kₒₙ.

[6] = target: T2, human TGFβ2, mature receptor-binding …; assay: BIAcore T200
Procedure: as §1

[7] = target: T1, human TGFβ3, mature dimeric form; assay: cell-based or functional assay; remark: listed apart in the source
[8] = target: T1, human TGFβ3, mature dimeric form; assay: BIAcore T200; remark: listed apart in the source
Procedure: as §1
(§2) Binding affinity determinations of all humanized 4A11 antibodies were performed using SPR measurement with a BIAcore™-T200 instrument, as described above in Example 6 ([…]).

[9] = target: T2, human TGFβ2, mature receptor-binding …; assay: BIAcore T200; remark: listed apart in the source
Procedure: as §1, §2

[10] = target: T3, human TGFβ1, mature receptor-binding …; assay: cell-based or functional assay; remark: listed apart in the source
[11] = target: T1, human TGFβ3, mature dimeric form; assay: cell-based or functional assay; remark: listed apart in the source
[12] = target: T2, human TGFβ2, mature receptor-binding …; assay: cell-based or functional assay; remark: listed apart in the source
[13] = target: T3, human TGFβ1, mature receptor-binding …; assay: cell-based or functional assay; remark: listed apart in the source
[14] = target: T1, human TGFβ3, mature dimeric form; assay: cell-based or functional assay; remark: listed apart in the source
[15] = target: T2, human TGFβ2, mature receptor-binding …; assay: cell-based or functional assay; remark: listed apart in the source
[16] = target: T3, human TGFβ1, mature receptor-binding …; assay: cell-based or functional assay; remark: listed apart in the source
[17] = target: T1, human TGFβ3, mature dimeric form; assay: cell-based or functional assay; remark: listed apart in the source
[18] = target: T2, human TGFβ2, mature receptor-binding …; assay: cell-based or functional assay; remark: listed apart in the source
[19] = target: T2, human TGFβ2, mature receptor-binding …; assay: BIAcore T200; remark: listed apart in the source
[20] = target: T2, human TGFβ2, mature receptor-binding …; assay: cell-based or functional assay; remark: listed apart in the source

Binder	Kd [8] [pM]	Kd [9] [pM]	HEKBlue TGFβ blocking IC50 [10] [pM]	HEKBlue TGFβ blocking IC50 [11] [pM]	HEKBlue TGFβ blocking IC50 [12] [pM]	HEKBlue TGFβ blocking IC50 [16] [pM]	HEKBlue TGFβ blocking IC50 [17] [pM]	HEKBlue TGFβ blocking IC50 [18] [pM]	Kd [19] [pM]	fold drop in blocking against r6F12 [20] [fold]	other results
h2A10.v2.5 (antibody, human IgG1, kappa, N297G, V domains shown) VH: EVQLLESGGGLVQPGGSLRLSCAASGFDFNSYGMSWVRQAPGKGLEWVADIVSKTYNYTTYYSDSVKDRFTISRDDSKSTVYLQMNSLRAEDTAVYYCTVAPGGSFDYWGQGTLVTVSS VL: DIQLTQSPSSLSASVGDRVTITCRASQSVSISRFNLMHWYQHKPGKQPKLLIYRASNLASGIPSRFSGSGSGTDFTLTISSLQPEDFATYYCQHSRESPWTFGGGTKVEIKR											HEKBlue TGFβ blocking IC50 [1]: > 200000 pM; HEKBlue TGFβ blocking IC50 [2]: 27400 pM; HEKBlue TGFβ blocking IC50 [3]: > 200000 pM; fold drop in TGFβ3 binding against h2A10.v2 [4]: 385 fold; Kd [5]: 500 pM; Kd [6]: 2820 pM; fold loss of TGFβ3 blocking against h2A10.v2 [7]: > 10 fold
h2A10.v2.7 (antibody, human IgG1, kappa, N297G, V domains shown) VH: EVQLLESGGGLVQPGGSLRLSCAASGFDFNSYGMSWVRQAPGKGLELVADIVSKTYNYTTYYSDSVKDRFTISRDNSKSTVYLQMNSLRAEDTAVYYCTVAPGGSFDYWGQGTLVTVSS VL: DIQLTQSPSSLSASVGDRVTITCRASQSVSISRFNLMHWYQHKPGKQPKLLIYRASNLASGIPSRFSGSGSGTDFTLTISSLQPEDFATYYCQHSRESPWTFGGGTKVEIKR											HEKBlue TGFβ blocking IC50 [1]: > 200000 pM; HEKBlue TGFβ blocking IC50 [2]: 120 pM; HEKBlue TGFβ blocking IC50 [3]: > 200000 pM; Kd [5]: 3.2 pM; Kd [6]: 921 pM; fold loss of TGFβ3 blocking against h2A10.v2 [7]: > 10 fold
h4A11.v7.17 (antibody, human IgG1, kappa, N297G, V domains shown) VH: EVQLQESGPGLVKPSETLSLTCTVTGFSLSSYTVNWIRQPAGKGLEWIGYISYGGSAYYASWANGRVTISKDTSKNQVSLKLSSVTAADTAVYYCARHMQVGGAPTGSMAAFDPWGQGTLVTVSS VL: EIVLTQSPGTLSLSPGERATLSCQSSQSVYNNNYLSWFQQKPGQAPRLLIYGASTLTSGIPDRFSGSGSGTDFTLTISRLEPEDFAVYYCAGGYSGSSDKYAFGGGTKVEIKR	3.2	1.3	> 200000	170	160						
h4A11.v7.18 (antibody, human IgG1, kappa, N297G, V domains shown) VH: EVQLQESGPGLVKPSETLSLTCTVTGFSLSSYTVNWIRQPAGKGLEWIGYISYGGSAYYASWANGRVTISKDTSKNQVSLKLSSVTAADTAVYFCARHMQVGGAPTGSMAAFDPWGQGTLVTVSS VL: EIVLTQSPGTLSLSPGERATLSCQSSQSVYNNNYLSWFQQKPGQAPRLLIYGASTLTSGIPDRFSGSGSGTDFTLTISRLEPEDFAVYYCAGGYSGSSDKYAFGGGTKVEIKR	4.6	1.1	> 200000	110	90						
h4A11.v7.19 (antibody, human IgG1, kappa, N297G, V domains shown) VH: EVQLQESGPGLVKPSETLSLTCTVTGFSLSSYTVNWIRQPAGKGLEWIGYISYGGSAYYASWANGRVTISKDTSQVSLKLSSVTAADTAVYFCARHMQVGGAPTGSMAAFDPWGQGTLVTVSS VL: EIVLTQSPGTLSLSPGERATLSCQSSQSVYNNNYLSWFQQKPGQAPRLLIYGASTLTSGIPDRFSGSGSGTDFTLTISRLEPEDFAVYYCAGGYSGSSDKYAFGGGTKVEIKR	≤ 1.3	1	> 200000	90	50						
h6F12.v1 (antibody, human IgG1, kappa, N297G, V domains shown) VH: EVTLKESGPVLVKPTETLTLTCTVSGFSLTTYNVHWVRQPPGKALEWMGLIWNTGGTRYNSALKSRLTISKDTSKSQVVLTMTNMDPVDTATYYCARDPVPNKWHFDFWGPGTLVTVSS VL: DIQMTQSPSTLSASVGDRVTITCLASEDIYSNLAWYQQKPGKSPKLLIYDARSLQDGVPSRFSGSESGPEYTLTISSLQPDDFATYFCQQHHAYPFTFGQGTKVEIKR						> 200000	> 200000	20	≤ 0.5	2.5 to 5	HEKBlue TGFβ blocking IC50 [13]: > 200000 pM; HEKBlue TGFβ blocking IC50 [14]: > 200000 pM; HEKBlue TGFβ blocking IC50 [15]: 20 pM
h6F12.v2 (antibody, human IgG1, kappa, N297G, V domains shown) VH: EVQLQESGPGLVKPSETLSLTCTVSGFSLTTYNVHWVRQPPGKGLEWMGLIWNTGGTRYNSALKSRLTISKDTSKSQVSLKLSSVTAADTAVYYCARDPVPNKWHFDFWGPGTLVTVSS VL: DIQMTQSPSTLSASVGDRVTITCLASEDIYSNLAWYQQKPGKSPKLLIYDARSLQDGVPSRFSGSESGPEYTLTISSLQPDDFATYFCQQHHAYPFTFGQGTKVEIKR						> 200000	> 200000	10	≤ 0.5	2.5 to 5	
h6F12.v3 (antibody, human IgG1, kappa, N297G, V domains shown) VH: EVTLKESGPVLVKPTETLTLTCTVSGFSLTTYNVHWVRQPPGKALEWMGLIWNTGGTRYNSALKSRLTISKDTSKSQVVLTMTNMDPVDTATYYCARDPVPNKWHFDFWGPGTLVTVSS VL: EIVMTQSPATLSVSPGERATLSCLASEDIYSNLAWYQQKPGQSPRLLIYDARSLQDGVPARFSGSESGPEYTLTISSLQSEDFAVYFCQQHHAYPFTFGQGTKVEIKR						> 200000	> 200000	5	≤ 0.5		
h6F12.v4 (antibody, human IgG1, kappa, N297G, V domains shown) VH: EVQLQESGPGLVKPSETLSLTCTVSGFSLTTYNVHWVRQPPGKGLEWMGLIWNTGGTRYNSALKSRLTISKDTSKSQVSLKLSSVTAADTAVYYCARDPVPNKWHFDFWGPGTLVTVSS VL: EIVMTQSPATLSVSPGERATLSCLASEDIYSNLAWYQQKPGQSPRLLIYDARSLQDGVPARFSGSESGPEYTLTISSLQSEDFAVYFCQQHHAYPFTFGQGTKVEIKR						> 200000	> 200000	20	≤ 0.5	2.5 to 5	
